In EP1720907B1 (MorphoSys AG, dated 2015):
Where “and” joins values, the source holds several entries; their conditions need not be identical. Equal values may be shown once.

T1: human CD38 (human, UniProt P28907 1-300)
T1 sequence: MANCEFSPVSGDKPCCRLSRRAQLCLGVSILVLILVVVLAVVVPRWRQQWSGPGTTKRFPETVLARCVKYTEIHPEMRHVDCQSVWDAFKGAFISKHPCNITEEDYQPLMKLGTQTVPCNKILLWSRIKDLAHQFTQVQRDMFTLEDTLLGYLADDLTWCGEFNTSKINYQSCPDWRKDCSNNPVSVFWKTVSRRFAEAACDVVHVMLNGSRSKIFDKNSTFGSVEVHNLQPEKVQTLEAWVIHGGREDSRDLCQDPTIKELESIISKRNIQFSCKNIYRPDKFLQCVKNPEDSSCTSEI

B1: MOR03080 human IgG1 (antibody, V domains shown)
VH: QVQLVESGGGLVQPGGSLRLSCAASGFTFSSYGMHWVRQAPGKGLEWVSNIYSDGSNTFYADSVKGRFTISRDNSKNTLYLQMNSLRAEDTAVYYCARNMYRWPFHYFFDYWGQGTLVTVSS
VL: DIELTQPPSVSVAPGQTARISCSGDNIGNKYVSWYQQKPGQAPVVVIYGDNNRPSGIPERFSGSNSGNTATLTISGTQAEDEADYYCSSYDSSYFVFGGGTKLTVLG
B2: MOR03100 human IgG1 (antibody, V domains shown)
VH: QVQLVESGGGLVQPGGSLRLSCAASGFTFSSNGMSWVRQAPGKGLEWVSNISYLSSSTYYADSVKGRFTISRDNSKNTLYLQMNSLRAEDTAVYYCARFYGYFNYADVWGQGTLVTVSS
VL: DIELTQPPSVSVAPGQTARISCSGDNIGHYYASWYQQKPGQAPVLVIYRDNDRPSGIPERFSGSNSGNTATLTISGTQAEDEADYYCQSYDYLHDFVFGGGTKLTVLG
B3: MOR03077 human IgG1 (antibody, V domains shown)
VH: QVQLVQSGAEVKKPGASVKVSCKASGYTFTSYSINWVRQAPGQGLEWMGYIDPNRGNTNYAQKFQGRVTMTRDTSISTAYMELSSLRSEDTAVYYCAREYIYFIHGMLDFWGQGTLVTVSS
VL: DIVMTQSPLSLPVTPGEPASISCRSSQSLLFIDGNNYLNWYLQKPGQSPQLLIYLGSNRASGVPDRFSGSGSGTDFTLKISRVEAEDVGVYYCQQYSSKSATFGQGTKVEIKR
B4: MOR03079 human IgG1 (antibody, V domains shown)
VH: QVQLVESGGGLVQPGGSLRLSCAASGFTFSNYGMHWVRQAPGKGLEWVSNIRSDGSWTYYADSVKGRFTISRDNSKNTLYLQMNSLRAEDTAVYYCARRYWSKSHASVTDYWGQGTLVTVSS
VL: DIQMTQSPSSLSASVGDRVTITCRASQDISAFLNWYQQKPGKAPKLLIYKVSNLQSGVPSRFSGSGSGTDFTLTISSLQPEDFATYYCQQAYSGSITFGQGTKVEIKR

Molecular target: T1, human CD38
Assay: cell-based or functional assay

ADCC EC50 [nM], LP-1 | ADCC EC50 [nM], RPMI8226 | CDC EC50 [nM], CHO-transfectants | Molecule
5.23 nM | 4.1 nM | – | Chimeric OKT10 (antibody)
0.17 nM | 0.05 nM | 3.2 nM and 2.93 nM | B1
1 nM | 0.28 nM | 10.9 nM and 13.6 nM | B2
0.6 nM | 0.08 nM | 0.8 nM and 0.94 nM | B3
0.09 nM | 0.04 nM | – | B4
